The source of these data is article PMC12599251.

Several values for one entry are separate records, joined by “and”; a condition that tells them apart may be missing. Identical values can stand only once.

Test [1] addresses Human Hsp90β (heat shock protein 90 beta), wild type (human) (UniProt P08238). In words: AUC; sedimentation velocity, 42,000 rpm, 20°C, 11-15 uM protein, absorbance at 280 nm, continuous c(S) distribution (SEDFIT); peroxynitrite-treated samples dialyzed beforehand.
Test [2] shares this target. In words: native gel or EMSA; native PAGE: 20 ug protein (1 mg/ml) on 4-20% polyacrylamide gels in native loading buffer (Tris pH 6.8, 50% glycerol); directly after purification and after incubation at 4°C or 25°C in PBS pH 7.4 for up to 48 h. (In general: In EMSA bound probe runs differently from free probe, usually more slowly.)
Test [3] concerns the target Human Hsp90β treated with 0.5 mM peroxynitrite (human) (UniProt P08238). In words: AUC; sedimentation velocity, 42,000 rpm, 20°C, 11-15 uM protein, absorbance at 280 nm, continuous c(S) distribution (SEDFIT); peroxynitrite-treated samples dialyzed beforehand.
Test [4] deals with Human Hsp90β with 3-nitrotyrosine at position 33 (human) (UniProt P08238). The test is described as above.
The target is the same in test [5]. In words: native gel or EMSA; native PAGE: 20 ug protein (1 mg/ml) on 4-20% polyacrylamide gels in native loading buffer (Tris pH 6.8, 50% glycerol); directly after purification and after incubation at 4°C or 25°C in PBS pH 7.4 for up to 48 h.
Test [6] shares this target. In words: AUC; sedimentation velocity, 42,000 rpm, 20°C, 11-15 uM protein, absorbance at 280 nm, continuous c(S) distribution (SEDFIT); peroxynitrite-treated samples dialyzed beforehand. This is another data set of the same source.
Test [7] concerns the target Human Hsp90β with 3-nitrotyrosine at position 56 (human) (UniProt P08238). The test is described as above.
The target is the same in test [8]. In words: native gel or EMSA; native PAGE: 20 ug protein (1 mg/ml) on 4-20% polyacrylamide gels in native loading buffer (Tris pH 6.8, 50% glycerol); directly after purification and after incubation at 4°C or 25°C in PBS pH 7.4 for up to 48 h.
Test [9] has as its target Human Hsp90β with 3-nitrotyrosine at positions 33 and 56 (human) (UniProt P08238). In words: AUC; sedimentation velocity, 42,000 rpm, 20°C, 11-15 uM protein, absorbance at 280 nm, continuous c(S) distribution (SEDFIT); peroxynitrite-treated samples dialyzed beforehand.

Human Hsp90β with 3-nitrotyrosine at positions 33 and 56, P08238 1-724 (natural protein; 3-nitrotyrosine at 33 and at 56 (sole oxidative modifications); 3-nitrotyrosine at 33 and at 56 (sole oxidative, sequence (P08238 whole entry): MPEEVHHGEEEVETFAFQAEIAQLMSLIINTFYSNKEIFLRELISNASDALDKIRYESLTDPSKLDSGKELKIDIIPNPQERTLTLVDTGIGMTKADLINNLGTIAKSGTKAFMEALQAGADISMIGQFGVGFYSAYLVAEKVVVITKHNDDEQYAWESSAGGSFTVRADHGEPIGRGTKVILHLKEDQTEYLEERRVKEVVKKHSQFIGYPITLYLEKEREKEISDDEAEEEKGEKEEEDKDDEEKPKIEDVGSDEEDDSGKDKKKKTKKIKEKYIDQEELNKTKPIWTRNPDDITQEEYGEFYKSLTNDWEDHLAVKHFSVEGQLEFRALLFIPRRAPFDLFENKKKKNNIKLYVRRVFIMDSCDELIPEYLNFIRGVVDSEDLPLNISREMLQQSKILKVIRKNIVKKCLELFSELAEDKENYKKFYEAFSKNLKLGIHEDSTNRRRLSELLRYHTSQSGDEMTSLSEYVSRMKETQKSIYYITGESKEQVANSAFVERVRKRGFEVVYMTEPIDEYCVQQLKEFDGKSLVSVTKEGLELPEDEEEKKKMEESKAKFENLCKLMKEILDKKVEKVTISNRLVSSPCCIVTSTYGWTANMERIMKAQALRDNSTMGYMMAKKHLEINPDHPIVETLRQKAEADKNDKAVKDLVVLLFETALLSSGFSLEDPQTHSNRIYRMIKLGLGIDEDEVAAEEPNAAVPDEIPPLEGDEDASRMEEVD
Human Hsp90β (heat shock protein 90 beta), wild type, P08238 1-724 (natural protein; other documents disagree on this pair), sequence (P08238 whole entry): as above

For the substance “Human Hsp90β (heat shock protein 90 beta), wild type, P08238 1-724 (natural protein; other documents disagree on this pair)”, the stoichiometry N in [1] and in [2] was 2 in each case.

As to “Human Hsp90β treated with 0.5 mM peroxynitrite, P08238 1-724 (natural protein; nitration of Y33, Y56, Y276, Y484 and Y596 after treatment with 0.5 mM peroxynitrite; nitration of Y33, Y56, Y276, Y484 and Y596 after treatment with 0.5 mM peroxynitrite; other documents disagree on this pair)”, in [3], the stoichiometry N is 2 and 4.

Regarding “Human Hsp90β with 3-nitrotyrosine at position 33, P08238 1-724 (natural protein; 3-nitrotyrosine at 33 (sole oxidative modification); 3-nitrotyrosine at 33 (sole oxidative modification); other documents disagree on this pair)”, the stoichiometry N in [4] turned out to be 2; in test [5], 2; in test [6], 6.

Regarding “Human Hsp90β with 3-nitrotyrosine at position 56, P08238 1-724 (natural protein; 3-nitrotyrosine at 56 (sole oxidative modification); 3-nitrotyrosine at 56 (sole oxidative modification); other documents disagree on this pair)”, the stoichiometry N in test [7] and in test [8] was 2 in each case.

Consider “Human Hsp90β with 3-nitrotyrosine at positions 33 and 56, P08238 1-724 (natural protein; 3-nitrotyrosine at 33 and at 56 (sole oxidative modifications); 3-nitrotyrosine at 33 and at 56 (sole oxidative modifications); other documents disagree on this pair)”, for which the stoichiometry N in test [9] is 2 and 6.

The term stoichiometry N denotes the number of molecules, sites or subunits per partner or assembly.
